In patent US5786328A, “Use of kunitz type plasma kallikrein inhibitors” (Genentech, Inc., priority 1995, dated 1998):

Legend:
Assay in all cases: Specificity assay, fraction of remaining proteolytic activity
Type in all cases: biochemical
plasma kallikrein = molecular target: T1, plasma kallikrein (Homo sapiens, UniProt P03952); conditions: 100 nM inhibitor; 3.5 nM enzyme
T1 construct: Human plasma kallikrein and Factor XIIa were purchased; purchased Enzyme Research Laboratories, Inc. (South Bend, Ind)
T1 sequence (P03952 20-390 limits assumed): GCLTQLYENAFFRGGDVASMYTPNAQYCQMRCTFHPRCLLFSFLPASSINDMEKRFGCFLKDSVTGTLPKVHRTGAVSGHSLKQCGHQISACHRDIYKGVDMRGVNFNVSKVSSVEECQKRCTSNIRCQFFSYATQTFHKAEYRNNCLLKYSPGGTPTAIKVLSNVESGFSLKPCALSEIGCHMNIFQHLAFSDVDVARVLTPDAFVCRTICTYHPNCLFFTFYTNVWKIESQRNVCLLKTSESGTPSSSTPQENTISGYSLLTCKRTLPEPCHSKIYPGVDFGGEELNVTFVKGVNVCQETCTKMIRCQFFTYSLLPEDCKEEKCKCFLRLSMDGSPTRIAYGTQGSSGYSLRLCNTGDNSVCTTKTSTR
T1 sequence (P03952 391-638 limits assumed): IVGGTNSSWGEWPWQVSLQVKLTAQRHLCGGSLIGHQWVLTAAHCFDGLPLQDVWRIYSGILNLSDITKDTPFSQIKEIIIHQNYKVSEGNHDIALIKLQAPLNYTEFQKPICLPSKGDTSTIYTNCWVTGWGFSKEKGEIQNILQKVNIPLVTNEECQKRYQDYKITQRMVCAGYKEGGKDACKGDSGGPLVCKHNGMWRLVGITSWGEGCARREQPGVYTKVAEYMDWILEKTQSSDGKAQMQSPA
Description: (§1) Aliquots (30 μL) of various inhibitors diluted to 500 nM were incubated with each protease (100 μL) in the appropriate buffer. After incubation of the substrate/inhibitor mixes at room temperature for 2 h, the appropriate substrate (20 μL) was added, and the absorbance at 405 nm was monitored. Controls lacking inhibitor and enzyme were assayed to measure the uninhibited and substrate hydrolysis rates, respectively. […] The FXIa assay also contained 1 mg/mL BSA. The concentration of FXIa throughout refers to the concentration of active sites. For this experiment, the concentrations of thrombin, TF-FVIIa, FXa, FXIa, FXIIa, and plasmin are 25 approximate and are determined based upon the manufacturers, specifications.
(§2) Serine proteases (1 to 20 nM) were assayed in the presence of 100 nM inhibitor.

Factor XIa = molecular target: T2, Factor XIa (Homo sapiens, UniProt P03951); conditions: 100 nM inhibitor; […] enzyme
T2 construct: purchased Haematologic Technologies Inc. (Essex Jct., VT)
T2 sequence (P03951 19-387 limits assumed): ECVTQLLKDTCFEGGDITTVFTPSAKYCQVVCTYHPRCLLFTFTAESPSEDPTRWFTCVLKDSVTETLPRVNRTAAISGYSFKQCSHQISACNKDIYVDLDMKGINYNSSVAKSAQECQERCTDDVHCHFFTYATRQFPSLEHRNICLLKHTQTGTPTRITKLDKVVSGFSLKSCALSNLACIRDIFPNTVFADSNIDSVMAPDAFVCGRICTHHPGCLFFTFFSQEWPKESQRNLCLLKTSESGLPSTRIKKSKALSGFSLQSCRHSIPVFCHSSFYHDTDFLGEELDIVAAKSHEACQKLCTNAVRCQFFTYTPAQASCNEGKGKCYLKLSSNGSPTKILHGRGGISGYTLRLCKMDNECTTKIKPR
T2 sequence (P03951 388-625 limits assumed): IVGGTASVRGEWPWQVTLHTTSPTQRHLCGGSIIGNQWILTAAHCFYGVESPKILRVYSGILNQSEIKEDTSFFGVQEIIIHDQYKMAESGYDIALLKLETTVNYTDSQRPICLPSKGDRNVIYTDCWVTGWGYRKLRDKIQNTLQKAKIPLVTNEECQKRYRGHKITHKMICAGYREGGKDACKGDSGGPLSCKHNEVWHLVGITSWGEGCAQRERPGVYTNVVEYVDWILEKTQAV
Description: as §1, §2

Factor XIIa = molecular target: T3, Factor XIIa (Homo sapiens, UniProt P00748); conditions: 100 nM inhibitor; 14 nM enzyme
T3 construct: purchased Enzyme Research Laboratories, Inc. (South Bend, Ind)
T3 sequence (P00748 20-372 limits assumed): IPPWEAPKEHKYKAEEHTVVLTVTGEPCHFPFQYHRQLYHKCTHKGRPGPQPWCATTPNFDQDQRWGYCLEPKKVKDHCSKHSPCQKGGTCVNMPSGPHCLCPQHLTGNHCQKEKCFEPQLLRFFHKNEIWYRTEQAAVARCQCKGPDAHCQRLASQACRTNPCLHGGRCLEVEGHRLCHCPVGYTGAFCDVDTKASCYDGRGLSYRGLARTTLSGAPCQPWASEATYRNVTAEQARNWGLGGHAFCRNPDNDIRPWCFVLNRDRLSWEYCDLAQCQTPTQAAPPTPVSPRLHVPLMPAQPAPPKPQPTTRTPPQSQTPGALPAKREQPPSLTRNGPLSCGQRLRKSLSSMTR
T3 sequence (P00748 373-615 limits assumed): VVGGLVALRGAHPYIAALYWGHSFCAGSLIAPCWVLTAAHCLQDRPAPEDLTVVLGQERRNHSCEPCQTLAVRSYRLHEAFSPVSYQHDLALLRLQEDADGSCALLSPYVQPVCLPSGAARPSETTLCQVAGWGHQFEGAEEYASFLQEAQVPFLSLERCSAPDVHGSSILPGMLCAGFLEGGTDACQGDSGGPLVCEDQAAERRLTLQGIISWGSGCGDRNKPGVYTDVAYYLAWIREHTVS
Description: as §1, §2

Factor Xa = molecular target: T4, Factor Xa (Homo sapiens, UniProt P00742); conditions: 100 nM inhibitor; 2.5 nM enzyme
T4 construct: purchased Haematologic Technologies Inc. (Essex Jct., VT)
T4 sequence (P00742 41-179 limits assumed): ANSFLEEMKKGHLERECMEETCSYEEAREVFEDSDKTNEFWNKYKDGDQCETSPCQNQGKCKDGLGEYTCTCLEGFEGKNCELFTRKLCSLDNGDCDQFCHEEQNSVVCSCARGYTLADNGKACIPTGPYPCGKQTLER
T4 sequence (P00742 235-488 limits assumed): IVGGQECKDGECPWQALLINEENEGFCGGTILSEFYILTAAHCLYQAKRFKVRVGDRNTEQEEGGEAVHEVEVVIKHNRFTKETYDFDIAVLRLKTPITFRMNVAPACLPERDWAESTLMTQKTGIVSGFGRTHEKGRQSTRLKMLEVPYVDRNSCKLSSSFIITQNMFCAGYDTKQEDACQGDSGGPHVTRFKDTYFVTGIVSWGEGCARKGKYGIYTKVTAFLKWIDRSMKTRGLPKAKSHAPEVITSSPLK
Description: as §1, §2

thrombin = molecular target: T5, thrombin (Homo sapiens, UniProt P00734); conditions: 100 nM inhibitor; 6.2 nM enzyme
T5 construct: purchased Haematologic Technologies Inc. (Essex Jct., VT)
Description: as §1, §2

plasmin = molecular target: T6, plasmin (Homo sapiens, UniProt P00747); conditions: 100 nM inhibitor; 32 nM enzyme
T6 construct: Human plasmin, S-2302, S-2251, and S-2366 were purchased from Kabi Vitrum (Sweden); purchased Kabi Vitrum (Sweden)
T6 sequence (P00747 97-580 limits assumed): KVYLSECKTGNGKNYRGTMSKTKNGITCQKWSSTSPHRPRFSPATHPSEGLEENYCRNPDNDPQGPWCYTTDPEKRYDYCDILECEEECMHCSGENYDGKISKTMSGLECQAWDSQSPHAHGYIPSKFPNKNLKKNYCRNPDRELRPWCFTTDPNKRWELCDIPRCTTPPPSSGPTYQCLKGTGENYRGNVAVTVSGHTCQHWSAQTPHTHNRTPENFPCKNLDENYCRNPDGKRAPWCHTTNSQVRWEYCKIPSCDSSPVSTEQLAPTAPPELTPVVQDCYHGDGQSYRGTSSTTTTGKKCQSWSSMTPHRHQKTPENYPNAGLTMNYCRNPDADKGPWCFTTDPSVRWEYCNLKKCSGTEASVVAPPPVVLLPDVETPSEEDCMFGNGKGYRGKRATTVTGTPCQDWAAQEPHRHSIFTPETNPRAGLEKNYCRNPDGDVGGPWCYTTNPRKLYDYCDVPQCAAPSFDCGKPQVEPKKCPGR
T6 sequence (P00747 581-810 limits assumed): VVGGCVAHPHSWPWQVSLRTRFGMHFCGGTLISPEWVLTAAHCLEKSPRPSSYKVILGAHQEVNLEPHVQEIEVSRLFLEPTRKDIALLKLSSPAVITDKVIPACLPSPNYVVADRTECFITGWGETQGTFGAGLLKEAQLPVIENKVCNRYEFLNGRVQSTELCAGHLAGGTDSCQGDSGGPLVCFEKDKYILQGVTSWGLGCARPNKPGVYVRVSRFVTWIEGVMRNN
Description: as §1, §2

activated protein C = molecular target: T7, activated protein C (Homo sapiens, UniProt P04070); conditions: 100 nM inhibitor; 7.6 nM enzyme
T7 construct: purchased Haematologic Technologies Inc. (Essex Jct., VT)
T7 sequence (P04070 43-197 limits assumed): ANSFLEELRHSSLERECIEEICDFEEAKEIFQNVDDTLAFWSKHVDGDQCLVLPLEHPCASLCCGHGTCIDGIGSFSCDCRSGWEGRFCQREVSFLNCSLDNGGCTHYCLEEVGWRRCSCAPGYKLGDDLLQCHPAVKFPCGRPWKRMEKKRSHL
T7 sequence (P04070 212-461 limits assumed): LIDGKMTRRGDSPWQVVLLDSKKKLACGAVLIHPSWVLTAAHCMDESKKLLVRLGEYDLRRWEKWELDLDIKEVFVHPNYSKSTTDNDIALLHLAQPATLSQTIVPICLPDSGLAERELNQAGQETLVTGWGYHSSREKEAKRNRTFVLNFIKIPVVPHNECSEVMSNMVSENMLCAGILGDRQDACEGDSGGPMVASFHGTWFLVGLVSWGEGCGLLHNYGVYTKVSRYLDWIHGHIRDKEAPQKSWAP
Description: as §1, §2

TF-FVIIa = molecular target: T8, TF-FVIIa (Homo sapiens, UniProt P08709); conditions: 100 nM inhibitor; TF 77 nM, FVIIa 14 nM
T8 construct: purchased Haematologic Technologies Inc. (Essex Jct., VT) for FVIIa; TF made in house; host or cells: TF1-243: E. coli
T8 sequence (P08709 61-212 limits assumed): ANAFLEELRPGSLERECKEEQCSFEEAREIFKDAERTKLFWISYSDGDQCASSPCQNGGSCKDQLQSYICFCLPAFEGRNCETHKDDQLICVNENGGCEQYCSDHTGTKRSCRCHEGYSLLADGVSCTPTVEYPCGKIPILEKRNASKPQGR
T8 sequence (P08709 213-466 limits assumed): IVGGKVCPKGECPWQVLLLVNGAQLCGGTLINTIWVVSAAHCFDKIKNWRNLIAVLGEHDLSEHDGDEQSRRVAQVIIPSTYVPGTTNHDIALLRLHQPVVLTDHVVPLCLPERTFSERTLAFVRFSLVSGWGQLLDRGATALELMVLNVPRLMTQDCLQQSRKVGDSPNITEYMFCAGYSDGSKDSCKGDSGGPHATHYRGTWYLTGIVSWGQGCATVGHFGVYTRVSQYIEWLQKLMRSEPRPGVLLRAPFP
T8 sequence (P13726 33-275 partner limits assumed): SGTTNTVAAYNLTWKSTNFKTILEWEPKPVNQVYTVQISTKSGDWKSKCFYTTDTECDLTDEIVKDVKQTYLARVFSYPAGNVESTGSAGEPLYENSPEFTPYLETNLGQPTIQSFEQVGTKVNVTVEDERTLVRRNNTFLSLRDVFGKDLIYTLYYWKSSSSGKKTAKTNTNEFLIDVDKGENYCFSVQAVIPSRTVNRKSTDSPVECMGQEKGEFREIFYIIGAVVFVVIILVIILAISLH
Description: as §1, §2

Substance | fraction of remaining proteolytic activity, plasma kallikrein (plasma kallikrein) | fraction of remaining proteolytic activity, Factor XIa (Factor XIa) | fraction of remaining proteolytic activity, Factor XIIa (Factor XIIa) | fraction of remaining proteolytic activity, Factor Xa (Factor Xa) | fraction of remaining proteolytic activity, thrombin (thrombin) | fraction of remaining proteolytic activity, plasmin (plasmin) | fraction of remaining proteolytic activity, activated protein C (activated protein C) | fraction of remaining proteolytic activity, TF·Factor VIIa (TF-FVIIa)
KALI-30: APPI Kunitz domain mutant, R1 EGHCRAAILR2 FR3 (SEQ ID NO: 5) (VREVCSEQAEEGHCRAAILRWYFDVTEGKCAPFFYGGCGGNRNNFDTEEYCAAVCGSA) | 0.00 | 0.00 | 0.92 | 0.68 | 1.00 | 0.53 | 0.81 | 
KALI-8: APPI Kunitz domain mutant, R1 LGHCRAAIPR2 FR3 (SEQ ID NO: 3) (VREVCSEQAELGHCRAAIPRWYFDVTEGKCAPFFYGGCGGNRNNFDTEEYCAAVCGSA) | 0.00 | 0.00 | 1.00 |  | 0.99 | 0.83 | 0.89 | 0.94
KALI-13: APPI Kunitz domain mutant, R1 SGHCRAAIPR2 FR3 (SEQ ID NO: 1) (VREVCSEQAESGHCRAAIPRWYFDVTEGKCAPFFYGGCGGNRNNFDTEEYCAAVCGSA) | 0.00 | 0.01 | 1.00 | 0.97 | 0.96 | 0.65 | 0.90 | 0.96
KALI-46: APPI Kunitz domain mutant, R1 EGRCRASILR2 FR3 (SEQ ID NO: 33) (VREVCSEQAEEGRCRASILRWYFDVTEGKCAPFFYGGCGGNRNNFDTEEYCAAVCGSA) | 0.00 | 0.00 | 0.97 |  | 0.99 | 0.64 | 0.83 | 0.86
KALI-48: APPI Kunitz domain mutant, R1 TGHCRAAIPR2 FR3 (SEQ ID NO: 2) (VREVCSEQAETGHCRAAIPRWYFDVTEGKCAPFFYGGCGGNRNNFDTEEYCAAVCGSA) | 0.00 | 0.01 | 0.99 | 0.55 | 0.99 | 0.23 | 0.92 | 0.95
